This is an account of results in IntAct's records for PubMed 19407142.

To fix the notation:
B1: Protein phosphatase 2C 56 (Arabidopsis thaliana (Mouse-ear cress)), P49597 (parent)
chain: MEEVSPAIAGPFRPFSETQMDFTGIRLGKGYCNNQYSNQDSENGDLMVSLPETSSCSVSGSHGSESRKVLISRINSPNLNMKESAAADIVVVDISAGDEINGSDITSEKKMISRTESRSLFEFKSVPLYGFTSICGRRPEMEDAVSTIPRFLQSSSGSMLDGRFDPQSAAHFFGVYDGHGGSQVANYCRERMHLALAEEIAKEKPMLCDGDTWLEKWKKALFNSFLRVDSEIESVAPETVGSTSVVAVVFPSHIFVANCGDSRAVLCRGKTALPLSVDHKPDREDEAARIEAAGGKVIQWNGARVFGVLAMSRSIGDRYLKPSIIPDPEVTAVKRVKEDDCLILASDGVWDVMTDEEACEMARKRILLWHKKNAVAGDASLLADERRKEGKDPAAMSAAEYLSKLAIQRGSKDNISVVVVDLKPRRKLKSKPLN
B2: Protein phosphatase 2C 77 (Arabidopsis thaliana (Mouse-ear cress)), O04719 (parent)
chain: MDEVSPAVAVPFRPFTDPHAGLRGYCNGESRVTLPESSCSGDGAMKDSSFEINTRQDSLTSSSSAMAGVDISAGDEINGSDEFDPRSMNQSEKKVLSRTESRSLFEFKCVPLYGVTSICGRRPEMEDSVSTIPRFLQVSSSSLLDGRVTNGFNPHLSAHFFGVYDGHGGSQVANYCRERMHLALTEEIVKEKPEFCDGDTWQEKWKKALFNSFMRVDSEIETVAHAPETVGSTSVVAVVFPTHIFVANCGDSRAVLCRGKTPLALSVDHKPDRDDEAARIEAAGGKVIRWNGARVFGVLAMSRSIGDRYLKPSVIPDPEVTSVRRVKEDDCLILASDGLWDVMTNEEVCDLARKRILLWHKKNAMAGEALLPAEKRGEGKDPAAMSAAEYLSKMALQKGSKDNISVVVVDLKGIRKFKSKSLN
B3: Abscisic acid receptor PYR1 (Arabidopsis thaliana (Mouse-ear cress)), O49686 (parent)
chain: MPSELTPEERSELKNSIAEFHTYQLDPGSCSSLHAQRIHAPPELVWSIVRRFDKPQTYKHFIKSCSVEQNFEMRVGCTRDVIVISGLPANTSTERLDILDDERRVTGFSIIGGEHRLTNYKSVTTVHRFEKENRIWTVVLESYVVDMPEGNSEDDTRMFADTVVKLNLQKLATVAEAMARNSGDGSGSQVT

The variants in one experiment derive from B1. Conditions: with pyr1_arath PYR1, O49686.
G180D: the “effect of a mutation on the interaction” value is listed as “decreasing interaction”.

In another experiment the parent is B2. Conditions: with pyr1_arath PYR1, O49686.
On to G168D, for which the “effect of a mutation on the interaction” value is “disrupting interaction”.

Variants of B3 are the subject of the next experiment. The settings on record: with HAB1, Q9CAJ0.
HAB1, Q9CAJ0, sequence (Q9CAJ0 whole entry): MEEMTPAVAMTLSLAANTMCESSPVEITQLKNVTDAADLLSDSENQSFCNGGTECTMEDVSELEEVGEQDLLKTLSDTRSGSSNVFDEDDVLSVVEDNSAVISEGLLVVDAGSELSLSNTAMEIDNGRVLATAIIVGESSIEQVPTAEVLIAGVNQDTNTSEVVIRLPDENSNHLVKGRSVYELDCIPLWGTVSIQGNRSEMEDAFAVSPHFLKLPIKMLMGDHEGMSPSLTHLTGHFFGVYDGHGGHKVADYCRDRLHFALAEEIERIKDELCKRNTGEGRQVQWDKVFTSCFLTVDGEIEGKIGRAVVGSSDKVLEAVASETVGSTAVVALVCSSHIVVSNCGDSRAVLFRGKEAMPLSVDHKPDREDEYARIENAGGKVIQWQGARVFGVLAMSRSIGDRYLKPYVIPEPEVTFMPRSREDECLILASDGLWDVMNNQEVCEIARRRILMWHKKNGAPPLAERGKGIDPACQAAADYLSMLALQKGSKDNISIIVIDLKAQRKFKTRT
As for P88S, the “effect of a mutation on the interaction” value is “disrupting interaction”.

S152L: the “effect of a mutation on the interaction” value was “disrupting interaction”.
